The text below walks through data of PMC5640846.

In experiment [1] the target is HTNV Gn ectodomain (Hantaan virus glycoprotein Gn, residues 18 to 371) (Hantaan virus (HTNV)). Put plainly: AUC.
Experiment [2] shares this target. Put plainly: crystal structure.

“And” between values parts separate entries of the source, which are not always exact repeats. Equal values may be shown once.

As usually defined, the stoichiometry N is the number of molecules, sites or subunits per partner or assembly. With “HTNV Gn ectodomain (Hantaan virus glycoprotein Gn, residues 18 to 371) (domain or fragment)”, the stoichiometry N in experiment [1] is 2 and 3 and 4; in experiment [2] it was 4.
